Test results published in patent US20200325232A1 (INNATE PHARMA, published 2020).

How the values were obtained:
CD19 = target: T1, CD19 (UniProt P15391 20-556, limits assumed); assay: cell-based or functional assay
T1 sequence (looked up): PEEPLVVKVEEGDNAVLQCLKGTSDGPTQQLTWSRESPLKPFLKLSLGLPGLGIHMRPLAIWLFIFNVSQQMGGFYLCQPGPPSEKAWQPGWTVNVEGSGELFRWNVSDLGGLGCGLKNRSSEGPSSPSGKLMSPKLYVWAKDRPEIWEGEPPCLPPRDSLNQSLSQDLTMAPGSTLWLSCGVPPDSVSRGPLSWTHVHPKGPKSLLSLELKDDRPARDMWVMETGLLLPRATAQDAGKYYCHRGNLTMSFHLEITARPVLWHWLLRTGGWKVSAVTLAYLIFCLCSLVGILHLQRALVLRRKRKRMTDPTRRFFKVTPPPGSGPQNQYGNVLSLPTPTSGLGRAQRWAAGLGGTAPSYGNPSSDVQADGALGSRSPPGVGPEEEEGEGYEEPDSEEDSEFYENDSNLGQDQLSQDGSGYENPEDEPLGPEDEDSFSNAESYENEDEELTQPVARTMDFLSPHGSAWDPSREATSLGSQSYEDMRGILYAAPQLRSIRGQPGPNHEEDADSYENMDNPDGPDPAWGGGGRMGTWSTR

human NKp46 = target: T2, human NKp46 (human, UniProt O76036 22-304); assay: flow cytometry screen of Example 1 on a cell line expressing human NKp46
T2 construct: The screen used a cell line expressing 'the human NKp46 construct' at the cell surface; In the lysis assays NKp46 is on fresh human NK cells; also called huNKp46; NKp46 receptor
T2 sequence (O76036 22-304 Q82K limits assumed): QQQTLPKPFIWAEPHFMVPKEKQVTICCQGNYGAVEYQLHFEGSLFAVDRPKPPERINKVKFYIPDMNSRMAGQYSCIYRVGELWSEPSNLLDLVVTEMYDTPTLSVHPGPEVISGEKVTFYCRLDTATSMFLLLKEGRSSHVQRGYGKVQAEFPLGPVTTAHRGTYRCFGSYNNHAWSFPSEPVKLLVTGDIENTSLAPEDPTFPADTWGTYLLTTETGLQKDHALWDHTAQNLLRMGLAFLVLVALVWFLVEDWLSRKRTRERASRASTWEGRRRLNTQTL
Method: Primary screen: Supematant (SN) of growing clones were tested in a primary screen by flow cytometry using a cell line expressing the human NKp46 construct at the cell surface.

Binder	EC50 of Daudi target cell lysis by NK cells (4-h 51Cr-release assay) (CD19)	binding result (human NKp46)
CD19-F18-NKp46-1 (bispecific antibody) chain 1: not shown chain 2: not shown chain 3: DIQMTQTTSSLSASLGDRVTISCRASQDISNYLNWYQQKPDGTVKLLIYYTSRLHSGVPSRFSGSGSGTDYSLTINNLEQEDIATYFCQQGNTRPWTFGGGTKLEIKASTKGPSVFPLAPSSKSTSGGTAALGCLVKDYFPEPVTVSWNSGALTSGVHTFPAVLQSSGLYSLSSVVTVPSSSLGTQTYICNVNHKPSNTKVDKRVEPKSCDKTH	~1 picomolar	
CD19-F19-NKp46-1 (bispecific antibody, human IgG1, kappa) chain 1: not shown chain 2: not shown chain 3: DIQMTQTTSSLSASLGDRVTISCRASQDISNYLNWYQQKPDGTVKLLIYYTSRLHSGVPSRFSGSGSGTDYSLTINNLEQEDIATYFCQQGNTRPWTFGGGTKLEIKASTKGPSVFPLAPSSKSTSGGTAALGCLVKDYFPEPVTVSWNSGALTSGVHTFPAVLQSSGLYSLSSVVTVPSSSLGTQTYICNVNHKPSNTKVDKRVEPKSCDKTH	~1 picomolar	
CD19-F20-NKp46-1 (bispecific antibody, human IgG1, kappa) chain 1: not shown chain 2: not shown chain 3: DIQMTQTTSSLSASLGDRVTISCRASQDISNYLNWYQQKPDGTVKLLIYYTSRLHSGVPSRFSGSGSGTDYSLTINNLEQEDIATYFCQQGNTRPWTFGGGTKLEIKASTKGPSVFPLAPSSKSTSGGTAALGCLVKDYFPEPVTVSWNSGALTSGVHTFPAVLQSSGLYSLSSVVTVPSSSLGTQTYICNVNHKPSNTKVDKRVEPKSCDKTH	~1 picomolar	
NKp46-3 (antibody, V domains shown, Mouse hybridoma antibody (Balb/c immunisation); also called anti-NKp46 (NKp46-3)) VH: EVQLQQSGPELVKPGASVKISCKTSGYTFTEYTMHWVKQSHGKSLEWIGGISPNIGGTSYNQKFKGKATLTVDKSSSTAYMELRSLTSEDSAVYYCARRGGSFDYWGQGTTLTVSS VL: DIVMTQSPATLSVTPGDRVSLSCRASQSISDYLHWYQQKSHESPRLLIKYASQSISGIPSRFSGSGSGSDFTLSINSVEPEDVGVYYCQNGHSFPLTFGAGTKLELK		binds
